From patent US20240000956A1

Legend:
[1] = target: LecRLK-2RPAN (Salix purpurea); assay: size exclusion chromatography, self-association
[2] = target: SpG-type LecRLK-2PAN (Salix purpurea); assay: size exclusion chromatography, self-association

How did the percent monomeric [1] turn out when LecRLK-2RPAN (receptor) was run?
Its percent monomeric is 26.4%.

With SpG-type LecRLK-2PAN (receptor) as the substance, how does the percent in higher-order complex (likely a trimer or tetramer) [2] read?
Its percent in higher-order complex (likely a trimer or tetramer) is 48.2%.

What about the percent monomeric [2] of the same substance?
The percent monomeric was 51.8%.
